Data reported in US12459987B2, “Monoclonal antibodies for prevention and treatment of herpes simplex viral infections” (priority 2019, dated 2025).

Legend:
gB-1 = gB-1 (Human herpesvirus 1, UniProt P10211); test: Luminex competition: inhibition of binding of BMPC-23 human IgG to gB-1; parameters: species or system HSV-1; conditions: for Competition with BMPC-23: Table 3 summary
Protocol: FIGS. 10A-10G show the capacity of gB-1 specific mouse monoclonal IgG antibodies to inhibit binding of BMPC-23 human IgG antibodies to gB-1.
Finding BMPC-like antibodies. Nine out of 10 gB-1 specific mouse monoclonal IgG antibodies in FIG. 3 were tested for their capacity to inhibit binding of BMPC-23 human IgG antibodies to gB-1. Serially diluted, gB-1 specific mouse monoclonal antibodies or irrelevant, control mouse antibody (H33Lγ1) were incubated with gB-1 conjugated Luminex beads. After incubation, fixed concentration (2 ng/ml) of BMPC-23 human IgG antibodies were added to each well. After washing, mouse anti-human lgG-PE was added to detect binding of human BMPC-23 antibodies. […] Strong inhibition by HSV010-4 (>95% at 222 ng/ml), HSV010-7 (>90% at 222 ng/ml), and HSV010-34 (>80% at 222 ng/ml), shown in FIGS. 10B, 10F, and 10G, respectively, indicates these antibodies bind epitopes on gB-1 closely overlapping with the one recognized by BMPC-23. Therefore, similar protective efficacy as BMPC-23 is expected from these antibodies (experiments in progress). […] Protective efficacy of these antibodies need to be tested (experiments in progress).

[1] = tested on: HSV-2 G infected cell lysates; test: ELISA binding of recombinant antibodies to HSV-2 G infected cell lysates; parameters: species or system HSV-2 G strain; conditions: Table 3 summary
Protocol: Binding of recombinant antibodies to HSV-2 G lysates was tested by ELISA. Both heavy and light chain V(D)J rearrangements were amplified from selected single B-cell culture wells (22D10, 32H6, 33B8, and 35H7) by standard RT-PCR. These cloned V(D)J rearrangements were introduced into expression vectors. Recombinant antibodies were obtained by co-transfection of these expression vectors into Expi293F cells. ≥4 mg of purified IgGs was obtained (not shown). […]
Briefly, mice were vaccinated with ΔgD-2 and then 16 days after vaccination, the draining, inguinal lymph nodes were harvested. GC B cells were isolated from these tissues and were cultured in Nojima cultures. Although overall cloning efficiency of GC B cells from these (shipped) tissues was lower than those from freshly isolated tissues (6% vs. 20%), 50 GC clones were obtained that were specific to HSV-2 G strain (HSV-2 G or HSV2-G) lysate. GC B cells from inguinal lymph nodes of mice vaccinated with ΔgD-2 were sorted directly into 96-well plates (1 cell/well). These GC B cells were then cultured in the presence of NB-21.2D9 feeder cells. After culture, presence of IgG was first determined by ELISA, and then the reactivity of culture supernatant IgG against HSV-2 G lysates (HSV-2 G) and uninfected Vero lysates were tested by ELISA.
Based on the obtained V(D)J sequences from each B-cell culture, paired heavy and light chains were re-expressed (as recombinant mouse IgG1 and IgG2c antibodies) in Expi293F cells (Kuraoka et al. Immunity 2016; DiLillo et al. Nature Medicine 2013). […] As expected, all recombinant antibodies reacted specifically with HSV-2 G lysates (FIG. 3). […] Binding of recombinant antibodies to HSV-2 G lysates was tested by ELISA. Both heavy and light chain V(D)J rearrangements were amplified from selected single B-cell culture wells (22D10, 32H6, 33B8, and 35H7) by standard RT-PCR. These cloned V(D)J rearrangements were introduced into expression vectors. Recombinant antibodies were obtained by co-transfection of these expression vectors into Expi293F cells. ≥4 mg of purified IgGs was obtained (not shown). […] These recombinant antibodies (≥4 mg each) were tested for identification of reacting antigen(s), in an in vitro FcγRIV activation assay (Promega FcγRIV ADCC Reporter Bioassay)(FIG. 4), and in vivo protection assay. […]

[2] = target: glycoprotein B of HSV-1 (gB-1) (Human herpesvirus 1, UniProt P10211); test: Luminex multiplex assay, binding to gB-1; conditions: Table 3 summary
Protocol: FIGS. 9A and 9B are graphs of median fluorescence intensity (MFI) versus IgG concentration (ng/ml), showing the binding of various recombinant antibodies to gB-1 as measured by Luminex multiplex assay.
BMPC-23 binds HSV-1 gB (gB-1). The gB-1 binding of the antibodies was determined by Luminex multiplex assay. Mixtures of antigen (gB-1)-conjugated microspheres (1,000 counts each) were added to each well of 96-well filter plates (Millipore). After washing with PBS containing 1% BSA, 0.05% Tween 20 and 0.05% NaN3, serially diluted recombinant antibodies (5E7, 19G7, 18G4, 22E10, 3A2, 17G3, 22D10, 32H6, 33B8, 25H7, BMPC-23, and S5V2-29) were added to the plates and incubated for 2 hours at room temperature, with mild agitation of the plates. Samples were diluted in PBS containing 1% cow milk, 1% BSA, 0.05% Tween 20 and 0.05% NaN3. After washing, PE goat anti-mouse IgG was added to the plates and incubated for 1 hour at room temperature with mild agitation. After washing, microspheres were resuspended in PBS containing 1% BSA, 0.05% Tween 20 and 0.05% NaN3 and fluorescent signals from each microsphere were measured in a Bio-Plex® 3D machine.
Finding gB-1 specific HSV antibodies. After Nojima culture (single B-cell culture), HSV-specific antibodies were cloned from germinal center B cells and tested for binding to HSV-1 gB-1 by Luminex multiplex assay as described above. FIGS. 9A and 9B show the gB-1 binding results for 10 antibodies in comparison with BMPC-23. With the exception of BMPC-23, the antibodies in Table 3 were derived from germinal center B cells (lymph nodes) taken 15-17 days after primary vaccination with ΔgD-2. BMPC-23 was derived from bone marrow plasmacytes taken 2 weeks post-boost with ΔgD-2. Nucleotide sequences and amino acid sequences for the heavy-chains and light chains are shown in Table 4, as are the amino acid sequences for the light chain and heavy chain CDR1, CDR2, and CDR3.

B1: HSV010-20: gB-1 specific mouse monoclonal IgG; IgH SEQ ID NO: 64, IgL SEQ ID NO: 66 (antibody, V domains shown)
VH: DVQLQESGPGMVRPSQSLSLTCTVTGYSITSGYDWHWIRHFPGNKLEWMGYISYSGLTNYNPSLRSRFSITHDTSKNHFFLKLNSVTTEDTATYYCARGPPWYFDVWGTGTTVTVSSA
VL: DIVMTQSQKFMSTSVGGRVSITCKASQIVRATVAWYQQKPGQSPKPLIYLASNRHTGVPDRFTGSGSGTDFTLTISNVQSEDLADYFCLQYWNYPYTFGGGTKLEIKR
modifications: HSV010-20 heavy chain; HSV010-20 light chain
gB-1; BMPC-23 human IgG 2 ng/ml
  Inhibition of binding of BMPC-23 human IgG antibodies to gB-1 (in words): No inhibition
gB-1
  Competition with BMPC-23: No
[1]
  Binding to HSV-lysate: Yes
[2]
  Target antigens: gB

B2: HSV010-4: gB-1 specific mouse monoclonal IgG; IgH SEQ ID NO: 32, IgL SEQ ID NO: 34 (antibody, V domains shown)
VH: QVQLKESGPGLVAPSQSLSITCTVSGFSLSRHDVSWVRQPPGKGLEWLGVIWGDGSTNYHSALISRLSISKDNSKSQVFLKLNSLQNDDTATYYCAKEDYGIFPYWGQGTLVTVSAA
VL: DIKMTQSPSSMYASLGEKVTITCKASQDISSYLSWFQQKPGKSPKTLIYRANRLVDGVPSRFSGSGSGQDYSLSISSLDYEDMGIYYCLQYDEFPLTFGAGTKLELKR
modifications: HSV010-4 heavy chain; HSV010-4 light chain
gB-1
  Competition with BMPC-23: Strong
[1]
  Binding to HSV-lysate: Yes
[2]
  Target antigens: gB

B3: HSV010-8: gB-1 specific mouse monoclonal IgG; IgH SEQ ID NO: 68, IgL SEQ ID NO: 70 (antibody, V domains shown)
VH: QVQLKESGPGLVAPSQSLSITCTVSGFSLNNYDVSWVRQPPGKGLEWLGVIWGDGSTNYHSALISRLSISKDNSKSQVFLKLNSLQTDDTATYYCAKEDYGIFPYWGQGTLVTVSAA
VL: DIKMTQSPSSMYASLGERVTITCKASQDINSYLSWFQQKPGKSPKTLIYRANRLVDGVPSRFSGSGSGQDYSLTISSLEYENMGIYYCLQYDEFPLTFGAGTKLELKR
modifications: HSV010-8 heavy chain; HSV010-8 light chain
[1]
  Binding to HSV-lysate: Yes
[2]
  Target antigens: gB

B4: HSV010-7: gB-1 specific mouse monoclonal IgG; IgH SEQ ID NO: 36, IgL SEQ ID NO: 38 (antibody, V domains shown)
VH: QVQLQQSGPELVKPGASVKLSCKASGYTFTNYDINWVKQRPGQGLEWIGWIYPRDGSTKYNEKFKGKATLTIDTSSSTAYMELHSLTSEDSAVYFCARGIFYVNYDVYWGQGTLVTVSAA
VL: DIQMTQSSSFLSVSLGGRVTITCKASDHINNWLAWYQQKPGHAPRLLISGAASLETGVPSRFSGSGSGKDYTLTITSLQTEDVATYYCQQYWSSPLTFGGGTKLELKR
modifications: HSV010-7 heavy chain; HSV010-7 light chain
gB-1
  Competition with BMPC-23: Strong
[1]
  Binding to HSV-lysate: Yes
[2]
  Target antigens: gB

B5: HSV010-34: gB-1 specific mouse monoclonal IgG; IgH SEQ ID NO: 40, IgL SEQ ID NO: 42 (antibody, V domains shown)
VH: EVQLVESGGGLVQPGESLKLSCESNEYEFPSHDMSWVRKTPEKRLELVAAINSDGGSTYYPDTMERRFIISRDNTKKTLYLQMSSLRSEDTALYYCARHSSGYVLDYWGQGTSVTVSSA
VL: DIQMTQSSSYLSVSLGGRVTITCKASDHINHWLAWYQQKPGNAPRLLISGATSLETGVPSRFSGSGSGKDYTLSIASLQTEDVATYYCQQYWSTPYTFGGGTKLEIKR
modifications: HSV010-34 heavy chain; HSV010-34 light chain
gB-1
  Competition with BMPC-23: Strong
[1]
  Binding to HSV-lysate: Yes
[2]
  Target antigens: gB

B6: HSV010-6: gB-1 specific mouse monoclonal IgG; IgH SEQ ID NO: 44, IgL SEQ ID NO: 46 (antibody, V domains shown)
VH: QVQLQQPGAELVKPGASVKLSCKASGYTFTNYWIHWVKQRPGQGLEWIGMIHPNIGITHYSERFKSKATLTVDKSSTTAYMQLSSLTSEDSAVYYCARGSDSGSAWFAYWGQGTLVTVSAA
VL: DIQMTQSSSYLSVSLGGRVTITCKASDHINNWLAWYLQKPGNAPRLLMSGATSLETGVPSRFSGSGSGKDYTLSITSLQTEDVATYYCQQYWSTPLTFGAGTKLELKR
modifications: HSV010-6 heavy chain; HSV010-6 light chain
gB-1
  Competition with BMPC-23: Weak
[1]
  Binding to HSV-lysate: Yes
[2]
  Target antigens: gB

B7: HSV010-15: gB-1 specific mouse monoclonal IgG; IgH SEQ ID NO: 72, IgL SEQ ID NO: 74 (antibody, V domains shown)
VH: QVQLQQPGAELVKPGASVKLSCKASGYTFTSYWIHWVQQRPGQGLEWIGMIHPNSGITNYSEKFKSKATLTLDKSSSTAYMQLISLTSEDSAVYYCARGSSSGSAWFAYWGQGTLVTVSAA
VL: DIQMTQSSSYLSVSLGGRVTITCKASDHINNWLPWYQQKPGNAPRLLISGATSLETGVPSRFSGSGSGKDYTLSITSLQTEDVATYYCQQYWSSPLTFGAGTKLELKR
modifications: HSV010-15 heavy chain; HSV010-15 light chain
[1]
  Binding to HSV-lysate: Yes
[2]
  Target antigens: gB

B8: HSV010-16: gB-1 specific mouse monoclonal IgG; IgH SEQ ID NO: 76, IgL SEQ ID NO: 78 (antibody, V domains shown)
VH: QIQLVQSGPELKKPGETVKISCKASGYTFTTYGMSWVKQAPGKDLKWMGWINTYSGVSTYGDDFKGRFALSLETSASTAYLQINNLKNEDTATYFCAQLNYGMDYWGQGTSVTVSSA
VL: DIVMTQSHKFMSTSVGDRVSITCKASQDVSTSLAWYQQKPGQSPKLLIYSASYRYTGVPDRFTGSGSGTDFTFTISSVQAEDLAVYYCHQHYSIPRTFGGGTKLEIKR
modifications: HSV010-16 heavy chain; HSV010-16 light chain
[1]
  Binding to HSV-lysate: Yes
[2]
  Target antigens: gB
